Measured values: paper doi:10.1101/2020.10.19.346148

Experiments:
DNA-PKcs;Ku70;Ku80 = DNA-PKcs;Ku70;Ku80 (human? (HeLa cells);human?;human?, UniProt P78527;P12956;P13010 1-4128;1-609;1-732, ||); assay: cryo-EM structure
DNA-PKcs = DNA-PKcs (human? (HeLa cells), UniProt P78527 1-4128); assay: cryo-EM structure
DNA-PKcs, sequence (P78527 whole entry): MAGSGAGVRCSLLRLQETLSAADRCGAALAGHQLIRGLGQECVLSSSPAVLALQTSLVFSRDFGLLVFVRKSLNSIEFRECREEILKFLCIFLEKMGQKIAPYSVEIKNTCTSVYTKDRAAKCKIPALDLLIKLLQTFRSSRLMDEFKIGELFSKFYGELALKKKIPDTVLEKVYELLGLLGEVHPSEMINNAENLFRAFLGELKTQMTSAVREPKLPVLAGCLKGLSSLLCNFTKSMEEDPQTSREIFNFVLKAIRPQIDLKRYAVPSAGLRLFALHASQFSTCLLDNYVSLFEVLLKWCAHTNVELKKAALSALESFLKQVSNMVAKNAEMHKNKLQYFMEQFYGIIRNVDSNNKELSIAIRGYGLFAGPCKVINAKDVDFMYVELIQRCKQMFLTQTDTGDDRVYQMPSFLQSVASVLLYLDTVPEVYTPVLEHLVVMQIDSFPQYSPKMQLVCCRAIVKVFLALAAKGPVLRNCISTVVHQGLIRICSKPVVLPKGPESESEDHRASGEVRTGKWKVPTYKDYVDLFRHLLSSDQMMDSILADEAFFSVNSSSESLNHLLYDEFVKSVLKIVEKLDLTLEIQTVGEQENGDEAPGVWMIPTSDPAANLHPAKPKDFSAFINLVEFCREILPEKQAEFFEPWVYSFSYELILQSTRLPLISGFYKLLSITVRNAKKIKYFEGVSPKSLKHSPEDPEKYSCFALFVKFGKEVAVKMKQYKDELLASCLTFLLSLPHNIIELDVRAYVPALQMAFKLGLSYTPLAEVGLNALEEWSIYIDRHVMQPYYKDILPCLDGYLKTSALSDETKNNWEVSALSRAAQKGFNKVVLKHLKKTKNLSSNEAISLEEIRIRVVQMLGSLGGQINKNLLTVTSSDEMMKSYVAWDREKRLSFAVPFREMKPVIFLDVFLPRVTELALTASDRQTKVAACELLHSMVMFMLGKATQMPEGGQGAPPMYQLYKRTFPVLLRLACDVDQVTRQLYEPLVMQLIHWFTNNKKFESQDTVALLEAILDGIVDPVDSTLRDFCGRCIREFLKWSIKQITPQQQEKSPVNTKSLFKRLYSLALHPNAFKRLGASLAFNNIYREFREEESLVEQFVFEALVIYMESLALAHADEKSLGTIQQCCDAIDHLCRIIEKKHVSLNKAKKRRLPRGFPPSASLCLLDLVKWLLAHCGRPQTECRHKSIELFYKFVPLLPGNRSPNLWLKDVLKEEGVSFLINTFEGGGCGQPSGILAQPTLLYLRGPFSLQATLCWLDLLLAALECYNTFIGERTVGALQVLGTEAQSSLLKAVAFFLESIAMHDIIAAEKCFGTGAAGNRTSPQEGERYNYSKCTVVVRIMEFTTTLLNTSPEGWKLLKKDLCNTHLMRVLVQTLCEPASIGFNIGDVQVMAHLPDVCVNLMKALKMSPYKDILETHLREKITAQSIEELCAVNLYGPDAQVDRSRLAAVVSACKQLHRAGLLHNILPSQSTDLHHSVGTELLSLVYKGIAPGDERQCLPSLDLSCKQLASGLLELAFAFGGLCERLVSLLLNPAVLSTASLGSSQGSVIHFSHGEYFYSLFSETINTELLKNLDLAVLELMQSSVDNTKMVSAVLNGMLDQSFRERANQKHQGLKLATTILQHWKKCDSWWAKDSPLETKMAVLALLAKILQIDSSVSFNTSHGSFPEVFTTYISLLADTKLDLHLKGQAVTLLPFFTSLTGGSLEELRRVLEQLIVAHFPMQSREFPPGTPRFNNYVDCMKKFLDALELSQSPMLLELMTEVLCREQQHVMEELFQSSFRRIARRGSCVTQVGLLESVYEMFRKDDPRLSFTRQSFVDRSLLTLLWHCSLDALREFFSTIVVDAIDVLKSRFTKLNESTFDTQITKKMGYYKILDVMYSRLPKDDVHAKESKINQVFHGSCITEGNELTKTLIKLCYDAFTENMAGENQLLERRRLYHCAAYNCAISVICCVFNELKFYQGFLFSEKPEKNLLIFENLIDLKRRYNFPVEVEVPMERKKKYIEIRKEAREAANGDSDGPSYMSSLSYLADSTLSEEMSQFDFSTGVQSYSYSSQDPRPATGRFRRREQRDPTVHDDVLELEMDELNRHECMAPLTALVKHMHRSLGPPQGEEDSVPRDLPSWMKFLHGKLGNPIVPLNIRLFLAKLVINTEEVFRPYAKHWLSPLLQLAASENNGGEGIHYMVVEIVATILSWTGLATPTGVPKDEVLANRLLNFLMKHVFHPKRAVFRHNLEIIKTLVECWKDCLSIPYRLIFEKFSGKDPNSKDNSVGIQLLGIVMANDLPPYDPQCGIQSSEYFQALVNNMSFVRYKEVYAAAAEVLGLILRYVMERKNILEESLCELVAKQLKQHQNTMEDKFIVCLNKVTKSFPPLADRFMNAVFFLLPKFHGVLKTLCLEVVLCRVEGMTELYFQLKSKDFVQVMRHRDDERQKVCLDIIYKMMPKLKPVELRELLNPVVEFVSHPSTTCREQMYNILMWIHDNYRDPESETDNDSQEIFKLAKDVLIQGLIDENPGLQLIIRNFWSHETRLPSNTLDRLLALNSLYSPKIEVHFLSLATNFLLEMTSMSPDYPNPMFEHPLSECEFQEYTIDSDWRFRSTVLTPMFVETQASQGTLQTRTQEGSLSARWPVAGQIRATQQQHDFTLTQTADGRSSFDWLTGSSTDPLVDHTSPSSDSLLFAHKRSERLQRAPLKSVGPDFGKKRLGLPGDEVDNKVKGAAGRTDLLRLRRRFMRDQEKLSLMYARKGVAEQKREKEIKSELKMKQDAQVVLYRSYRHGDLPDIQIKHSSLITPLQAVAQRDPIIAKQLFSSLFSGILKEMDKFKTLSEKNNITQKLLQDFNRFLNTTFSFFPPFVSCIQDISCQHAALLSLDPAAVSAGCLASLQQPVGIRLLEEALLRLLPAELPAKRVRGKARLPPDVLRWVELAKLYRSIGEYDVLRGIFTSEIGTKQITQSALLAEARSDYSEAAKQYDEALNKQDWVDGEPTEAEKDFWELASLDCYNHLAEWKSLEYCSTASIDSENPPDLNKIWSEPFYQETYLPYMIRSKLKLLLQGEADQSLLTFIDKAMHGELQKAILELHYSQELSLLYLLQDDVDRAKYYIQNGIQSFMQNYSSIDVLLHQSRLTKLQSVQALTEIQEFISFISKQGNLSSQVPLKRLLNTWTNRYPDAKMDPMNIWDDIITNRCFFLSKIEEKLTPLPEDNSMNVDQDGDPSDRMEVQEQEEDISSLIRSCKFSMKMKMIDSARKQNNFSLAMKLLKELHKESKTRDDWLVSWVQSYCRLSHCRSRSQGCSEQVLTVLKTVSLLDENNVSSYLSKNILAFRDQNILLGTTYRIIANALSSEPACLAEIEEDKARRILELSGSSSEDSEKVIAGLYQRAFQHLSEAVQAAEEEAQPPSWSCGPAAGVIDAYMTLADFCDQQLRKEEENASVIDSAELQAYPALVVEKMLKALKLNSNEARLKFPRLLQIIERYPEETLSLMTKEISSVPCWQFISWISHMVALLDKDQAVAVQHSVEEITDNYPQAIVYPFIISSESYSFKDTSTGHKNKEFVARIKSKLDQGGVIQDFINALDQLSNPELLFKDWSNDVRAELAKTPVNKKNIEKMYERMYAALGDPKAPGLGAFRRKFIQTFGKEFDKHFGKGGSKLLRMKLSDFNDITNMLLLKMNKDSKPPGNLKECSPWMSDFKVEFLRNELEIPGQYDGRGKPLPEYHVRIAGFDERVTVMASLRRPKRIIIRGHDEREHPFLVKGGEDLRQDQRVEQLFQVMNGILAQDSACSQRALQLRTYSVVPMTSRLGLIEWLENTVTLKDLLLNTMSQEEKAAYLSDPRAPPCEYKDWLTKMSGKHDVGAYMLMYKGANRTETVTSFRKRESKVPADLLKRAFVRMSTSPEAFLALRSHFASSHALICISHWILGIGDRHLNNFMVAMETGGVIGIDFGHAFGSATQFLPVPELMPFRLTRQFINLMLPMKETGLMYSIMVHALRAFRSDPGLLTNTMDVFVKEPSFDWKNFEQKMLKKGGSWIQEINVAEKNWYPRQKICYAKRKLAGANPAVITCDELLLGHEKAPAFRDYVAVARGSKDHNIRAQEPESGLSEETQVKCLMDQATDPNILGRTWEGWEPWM

B1: 40 bp blunt DNA with two internal nicks (dsDNA)
DNA 1: GCATGCTCTACTGCTTCGATATCG
DNA 2: AAGCAGTAGAGCATGC
DNA 3: GCATGCTCTACTGCTTCGATATCG
DNA 4: AAGCAGTAGAGCATGC
binding result (DNA-PKcs;Ku70;Ku80): binds
binding result (DNA-PKcs): binds
